Experimental data from patent publication US20190041402A1 (GOVERNING COUNCIL OF THE UNIVERSITY OF TORONTO, published 2019).
Where a chain is given by its changes, count along the chain named.

T1: extracellular domain (ECD) of human αKlotho, amino acids E34-S981 with C-terminal 6-His tag (R&D Systems … (human, UniProt Q9UEF7 34-981))
T1 construct: range 34-981; also called αKlotho (aa34-981); target antigen
T1 sequence: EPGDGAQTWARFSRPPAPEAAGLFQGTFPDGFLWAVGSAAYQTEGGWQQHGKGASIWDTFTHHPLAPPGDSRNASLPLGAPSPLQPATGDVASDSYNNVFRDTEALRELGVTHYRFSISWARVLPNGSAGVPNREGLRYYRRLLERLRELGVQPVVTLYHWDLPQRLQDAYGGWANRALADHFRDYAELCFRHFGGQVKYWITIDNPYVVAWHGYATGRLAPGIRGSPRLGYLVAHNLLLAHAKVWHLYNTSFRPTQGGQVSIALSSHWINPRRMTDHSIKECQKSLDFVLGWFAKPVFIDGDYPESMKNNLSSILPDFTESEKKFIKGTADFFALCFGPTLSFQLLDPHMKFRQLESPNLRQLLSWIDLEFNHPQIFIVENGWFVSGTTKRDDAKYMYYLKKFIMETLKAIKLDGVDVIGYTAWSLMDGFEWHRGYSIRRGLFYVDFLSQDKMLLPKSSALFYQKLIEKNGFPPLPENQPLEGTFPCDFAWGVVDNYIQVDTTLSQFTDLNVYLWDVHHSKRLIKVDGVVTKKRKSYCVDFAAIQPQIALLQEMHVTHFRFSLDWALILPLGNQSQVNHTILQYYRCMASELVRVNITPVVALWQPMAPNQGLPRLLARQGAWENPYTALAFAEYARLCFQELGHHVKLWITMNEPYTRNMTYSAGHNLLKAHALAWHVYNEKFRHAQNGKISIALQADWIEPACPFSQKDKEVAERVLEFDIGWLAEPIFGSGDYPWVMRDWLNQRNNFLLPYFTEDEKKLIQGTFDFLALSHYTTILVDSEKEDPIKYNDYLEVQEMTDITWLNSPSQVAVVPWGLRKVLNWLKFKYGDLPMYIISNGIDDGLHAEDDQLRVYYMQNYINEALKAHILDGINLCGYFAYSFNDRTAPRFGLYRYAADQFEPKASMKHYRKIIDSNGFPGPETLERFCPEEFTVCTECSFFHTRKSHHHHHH

B1: anti-αKlotho Fab clone 4804 (Fab, V domains shown)
VH: EVQLVESGGGLVQPGGSLRLSCAASGFNLYSYSIHWVRQAPGKGLEWVAYISSSSGSTYYADSVKGRFTISADTSKNTAYLQMNSLRAEDTAVYYCARGWGGGYWFYPVYGIDYWGQGTLVTVSS
VL: DIQMTQSPSSLSASVGDRVTITCRASQSVSSAVAWYQQKPGKAPKLLIYSASSLYSGVPSRFSGSRSGTDFTLTISSLQPEDFATYYCQQSSYSLITFGQGTKVEIKR
notes: Fab (also as Fab-phage); FLAG tag on light chain C-terminus; also called sb173
B2: anti-αKlotho Fab clone 4807 (Fab, V domains shown)
VH: EVQLVESGGGLVQPGGSLRLSCAASGFNLSSSYMHWVRQAPGKGLEWVASIYPSYGSTSYADSVKGRFTISADTSKNTAYLQMNSLRAEDTAVYYCARGVVPSYYYWFWPYGAIDYWGQGTLVTVSS
VL: B1 VL
notes: Fab (also as Fab-phage); FLAG tag on light chain; also called sb176
B3: anti-αKlotho Fab clone 4805 (Fab, V domains shown)
VH: EVQLVESGGGLVQPGGSLRLSCAASGFNLSYYSMHWVRQAPGKGLEWVASISSYYGSTYYADSVKGRFTISADTSKNTAYLQMNSLRAEDTAVYYCARGGGYYSGPYAGFDYWGQGTLVTVSS
VL: DIQMTQSPSSLSASVGDRVTITCRASQSVSSAVAWYQQKPGKAPKLLIYSASSLYSGVPSRFSGSRSGTDFTLTISSLQPEDFATYYCQQSSGWYHFLFTFGQGTKVEIKR
notes: Fab (also as Fab-phage); FLAG tag on light chain; also called sb174
B4: anti-αKlotho Fab clone 4832 (Fab, V domains shown)
VH: EVQLVESGGGLVQPGGSLRLSCAASGFNFSSSSIHWVRQAPGKGLEWVAYISSSYGYTSYADSVKGRFTISADTSKNTAYLQMNSLRAEDTAVYYCARASGWFSHFYPAAVSGMDYWGQGTLVTVSS
VL: B1 VL
notes: Fab (also as Fab-phage); FLAG tag on light chain; also called sb201
B5: anti-αKlotho Fab clone 4833 (Fab, V domains shown)
VH: EVQLVESGGGLVQPGGSLRLSCAASGFNLSSYYMHWVRQAPGKGLEWVASIYPSYSSTYYADSVKGRFTISADTSKNTAYLQMNSLRAEDTAVYYCARSSYSVYFWWYVSAMDYWGQGTLVTVSS
VL: DIQMTQSPSSLSASVGDRVTITCRASQSVSSAVAWYQQKPGKAPKLLIYSASSLYSGVPSRFSGSRSGTDFTLTISSLQPEDFATYYCQQSSHGHYPITFGQGTKVEIKR
notes: Fab (also as Fab-phage); FLAG tag on light chain; also called sb202
B6: anti-αKlotho Fab clone 4830 (Fab, V domains shown)
VH: EVQLVESGGGLVQPGGSLRLSCAASGFNIYYSSIHWVRQAPGKGLEWVASIYPYYSYTYYADSVKGRFTISADTSKNTAYLQMNSLRAEDTAVYYCARSVASALDYWGQGTLVTVSS
VL: B3 VL with S91Y, G93W, W94Y, Y95W, H96Y, F97S, L98P, F99I
notes: Fab (also as Fab-phage); FLAG tag on light chain; also called sb199
B7: anti-αKlotho Fab clone 4829 (Fab, V domains shown)
VH: EVQLVESGGGLVQPGGSLRLSCAASGFNISSYYIHWVRQAPGKGLEWVASIYSSYGYTSYADSVKGRFTISADTSKNTAYLQMNSLRAEDTAVYYCARYSWSPYWWWAYSGLDYWGQGTLVTVSS
VL: DIQMTQSPSSLSASVGDRVTITCRASQSVSSAVAWYQQKPGKAPKLLIYSASSLYSGVPSRFSGSRSGTDFTLTISSLQPEDFATYYCQQGGGLITFGQGTKVEIKR
notes: Fab (also as Fab-phage); FLAG tag on light chain; also called sb198

target: T1, extracellular domain (ECD) of human …; test: SPR, Fab captured by anti-H+L IgG, αKlotho injected at 50 to 6.25 ug/ml, Langmuir fit
Procedure: (§1) Affinity estimates for each of the antibodies were determined by surface plasmon resonance (SPR). Fabs were immobilized using an anti-H+L antibody and serial dilutions of αKlotho were injected.

Point of comparison: B3, Kd 0.117 nM. Against it:
- B1 — 4.4-fold higher, 0.516 nM
- B2 — 30-fold higher, 3.5 nM

Point of comparison: B2, koff 0.00244 s⁻¹. Against it:
- B1 — 3.3-fold lower, 0.000738 s⁻¹
- B3 — 13-fold lower, 0.000183 s⁻¹

Point of comparison: B2, kon 698000 M⁻¹ s⁻¹. Against it:
- B1 — 2-fold higher, 1.43e+06 M⁻¹ s⁻¹
- B3 — 2.2-fold higher, 1.57e+06 M⁻¹ s⁻¹

target: T1, extracellular domain (ECD) of human …; test: SPR, Fab captured by anti-H+L antibody, αKlotho injected
Procedure: as §1

Point of comparison: B3, Kd 0.24 nM. Against it:
- B1 — 3.2-fold higher, 0.77 nM
- B2 — 25-fold higher, 6.1 nM
- B4 — 2.1-fold higher, 0.515 nM
- B5 — 5.8-fold higher, 1.4 nM
- B6 — 12-fold higher, 2.9 nM
- B7 — 7.5-fold higher, 1.8 nM

target: T1, extracellular domain (ECD) of human …; test: SPR, Fab captured by anti-H+L IgG, αKlotho injected at 50 to 6.25 ug/ml, Langmuir fit [continued]
Procedure: as §1

Point of comparison: B4, Kd 0.123 nM. Against it:
- B5 — 5.7-fold higher, 0.703 nM
- B6 — 12-fold higher, 1.53 nM
- B7 — 7.4-fold higher, 0.907 nM

Point of comparison: B7, koff 0.000614 s⁻¹. Against it:
- B4 — 13-fold lower, 4.61e-05 s⁻¹
- B5 — within 1.5-fold, 0.000519 s⁻¹
- B6 — 1.8-fold higher, 0.00113 s⁻¹

Point of comparison: B5, kon 739000 M⁻¹ s⁻¹. Against it:
- B4 — 2-fold lower, 374000 M⁻¹ s⁻¹
- B6 — within 1.5-fold, 741000 M⁻¹ s⁻¹
- B7 — within 1.5-fold, 678000 M⁻¹ s⁻¹

target: T2, bovine serum albumin (bovine, UniProt P02769 25-607); test: Fab ELISA, purified Fab 5 ug/ml on immobilised BSA, anti-Flag-HRP, A450
T2 construct: also called BSA
Procedure: FIG. 10 is a graph showing absorbance values of Fab ELISAs with additional αKlotho antibodies. Purified Fabs [5 ug/ml] were incubated with immobilized αKlotho (1 ug/ml) or bovine serum albumin (BSA), as a negative control. After washing off unbound Fab, bound Fab were detected using an HRP-conjugated anti-Flag anti-body (Fabs have Flag-tag on the light chain). Colorimetric HRP reagents allow for absorbance readings at 450 nm.

T2 sequence (P02769 25-607 limits assumed): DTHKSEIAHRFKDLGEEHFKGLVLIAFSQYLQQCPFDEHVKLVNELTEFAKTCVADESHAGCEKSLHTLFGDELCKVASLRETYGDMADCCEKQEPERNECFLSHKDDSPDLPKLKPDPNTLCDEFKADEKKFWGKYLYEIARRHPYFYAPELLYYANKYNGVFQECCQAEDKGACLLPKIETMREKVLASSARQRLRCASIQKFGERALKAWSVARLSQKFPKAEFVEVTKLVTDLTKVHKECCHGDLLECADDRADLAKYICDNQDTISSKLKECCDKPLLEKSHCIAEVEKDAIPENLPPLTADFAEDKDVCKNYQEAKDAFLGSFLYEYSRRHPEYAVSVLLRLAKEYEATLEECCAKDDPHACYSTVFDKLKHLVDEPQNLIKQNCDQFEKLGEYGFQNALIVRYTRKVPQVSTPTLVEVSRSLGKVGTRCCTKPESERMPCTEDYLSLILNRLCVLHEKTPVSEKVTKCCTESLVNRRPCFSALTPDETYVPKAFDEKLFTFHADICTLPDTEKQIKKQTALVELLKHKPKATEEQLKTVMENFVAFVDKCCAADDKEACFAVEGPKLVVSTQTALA

B4: no binding (tested: 5 ug/ml).
B5: no binding (tested: 5 ug/ml).
B6: no binding (tested: 5 ug/ml).
B7: no binding (tested: 5 ug/ml).
